Experimental data taken from publication PMC7934257.

Biological target: D-allulose 3-epimerase (DaeB) from Bacillus sp. KCTC 13219 (Bacillus sp. KCTC 13219)
Test: SEC; Superdex 200 Increase 10/300 GL, 50 mM Tris pH 8.0, 300 mM NaCl, 0.5 mL/min; calibrated with ribonuclease A, ovalbumin, conalbumin and aldolase; self-association of purified DaeB

“D-allulose 3-epimerase (DaeB) from Bacillus sp. KCTC 13219 (enzyme)” was tested, and the stoichiometry N was 2.
